Results published in the RNAGym collection of RNA variant scans (doi:10.1093/nar/gkz1192).

B1: CPEB3 Ribozyme (parent)
chain: UAACAGGGGGCCACAGCAGAAGCGUUCACGUCGCAGCCCCUGUCAGAUUCUGGUGAAUCUGCGAAUUCUGCUGUAUAUCUC

Variants of: B1
Assay: self-cleavage, relative activity (ratio to wild type); higher = more cleavage; in vitro, sequencing
Method in brief: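 Relative activity was defined as the cleaved/total read fraction for a variant divided by the same fraction for the unmutated ribozyme. CPEB3 self-cleaving ribozyme libraries were made by rounds of error-prone PCR, barcoded, and transcribed in vitro with T7 RNA polymerase for 5 hours at 37°C, and cleavage ran through transcription plus a 15 min DNase I step before EDTA. Illumina sequencing of template-switched reverse transcripts gave the reads, and DNA sequencing mapped the barcodes. Averages come from three batches, using variants with at least 5 reads.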

Variant	self-cleavage
UAACAGGGGGCCACAGCAGAAGCGUUCACGUCGCAGCCCCUGUCAGAUUCGGGUGAAUCUGCGGAUUCUGCUGUAUAUCUC [U51G A64G]	0.85
UAACAGGGGGCCACAGCAGAAGCGUUCACGUCGCAGCCCCUGUCAGAUUCGGGUGAAUCUGCGUAUUCUGCUGUAUAUCUC [U51G A64U]	0.52
UAACAGGGGGCCACAGCAGAAGCGUUCACGUCGCAGCCCCUGUCAGAUUCGGGUGAAUCUGUGAAUUCUGCUGUAUAUCUC [U51G C62U]	0.24
UAACAGGGGGCCACAGCAGAAGCGUUCACGUCGCAGCCCCUGUCAGAUUCCGGUGAAUCUGCGAAUUCUGCUGUAUAUCUA [U51C C81A]	1.18
UAACAGGGGGCCACAGCAGAAGCGUUCACGUCGCAGCCCCUGUCAGAUUCCGGUGAAUCUGCGAAUUCUGCUGUAUAUCUU [U51C C81U]	1.15
UAACAGGGGGCCACAGCAGAAGCGUUCACGUCGCAGCCCCUGUCAGAUUCCGGUGAAUCUGCGAAUUCUGCGGUAUAUCUC [U51C U72G]	0.88
UAACAGGGGGCCACAGCAGAAGCGUUCACGUCGCAGCCCCUGUCAGAUUCCGGUGAAUCUGCGAAUUCUGCAGUAUAUCUC [U51C U72A]	0.75
UAACAGGGGGCCACAGCAGAAGCGUUCACGUCGCAGCCCCUGUCAGAUUCCGGUGAAUCUGCGAAUUCUGCCGUAUAUCUC [U51C U72C]	1.01
UAACAGGGGGCCACAGCAGAAGCGUUCACGUCGCAGCCCCUGUCAGAUUCGGGUGAAUCUGCGAAUUAUGCUGUAUAUCUC [U51G C68A]	0.45
UAACAGGGGGCCACAGCAGAAGCGUUCACGUCGCAGCCCCUGUCAGAUUCCGGUGAAUCUGCGAAUUCUGCUAUAUAUCUC [U51C G73A]	1.24
UAACAGGGGGCCACAGCAGAAGCGUUCACGUCGCAGCCCCUGUCAGAUUCCGGAGAAUCUGCGAAUUCUGCUGUAUAUCUC [U51C U54A]	1.03
UAACAGGGGGCCACAGCAGAAGCGUUCACGUCGCAGCCCCUGUCAGAUUCCGGCGAAUCUGCGAAUUCUGCUGUAUAUCUC [U51C U54C]	1.07
UAACAGGGGGCCACAGCAGAAGCGUUCACGUCGCAGCCCCUGUCAGAUUCCGGGGAAUCUGCGAAUUCUGCUGUAUAUCUC [U51C U54G]	0.82
UAACAGGGGGCCACAGCAGAAGCGUUCACGUCGCAGCCCCUGUCAGAUUCCGGUGAAUCUGCGAAUUCUGUUGUAUAUCUC [U51C C71U]	0.62
UAACAGGGGGCCACAGCAGAAGCGUUCACGUCGCAGCCCCUGUCAGAUUCGGGUGUAUCUGCGAAUUCUGCUGUAUAUCUC [U51G A56U]	0.52
UAACAGGGGGCCACAGCAGAAGCGUUCACGUCGCAGCCCCUGUCAGAUUCGGGUGGAUCUGCGAAUUCUGCUGUAUAUCUC [U51G A56G]	0.65
UAACAGGGGGCCACAGCAGAAGCGUUCACGUCGCAGCCCCUGUCAGAUUCGGGUGCAUCUGCGAAUUCUGCUGUAUAUCUC [U51G A56C]	0.55

Variant	self-cleavage
UAACAGGGGGCCACAGCAGAAGCGUUCACGUCGCAGCCCCUGUCAGAUUCCGGUAAAUCUGCGAAUUCUGCUGUAUAUCUC [U51C G55A]	0.75
UAACAGGGGGCCACAGCAGAAGCGUUCACGUCGCAGCCCCUGUCAGAUUCCGGUUAAUCUGCGAAUUCUGCUGUAUAUCUC [U51C G55U]	0.73
UAACAGGGGGCCACAGCAGAAGCGUUCACGUCGCAGCCCCUGUCAGAUUCCGGUGAAUCUGCGAAUCCUGCUGUAUAUCUC [U51C U67C]	0.4
UAACAGGGGGCCACAGCAGAAGCGUUCACGUCGCAGCCCCUGUCAGAUUCCGGUGAAUCUGCGAAUGCUGCUGUAUAUCUC [U51C U67G]	0.38
UAACAGGGGGCCACAGCAGAAGCGUUCACGUCGCAGCCCCUGUCAGAUUCCGGUGAAUCUGCGAAUACUGCUGUAUAUCUC [U51C U67A]	0.56
UAACAGGGGGCCACAGCAGAAGCGUUCACGUCGCAGCCCCUGUCAGAUUCCGGUGAAUCUGCGAAUUCUGCUGUAGAUCUC [U51C U76G]	1.16
UAACAGGGGGCCACAGCAGAAGCGUUCACGUCGCAGCCCCUGUCAGAUUCCGGUGAAUCUGCGAAUUCUGCUGUACAUCUC [U51C U76C]	1.07
UAACAGGGGGCCACAGCAGAAGCGUUCACGUCGCAGCCCCUGUCAGAUUCCGGUGAAUCUGCGAAUUCUGCUGUAAAUCUC [U51C U76A]	1.21
UAACAGGGGGCCACAGCAGAAGCGUUCACGUCGCAGCCCCUGUCAGAUUCCGGUGAAUCUCCGAAUUCUGCUGUAUAUCUC [U51C G61C]	0.25
UAACAGGGGGCCACAGCAGAAGCGUUCACGUCGCAGCCCCUGUCAGAUUCCGGUGAAUCUACGAAUUCUGCUGUAUAUCUC [U51C G61A]	0.71
UAACAGGGGGCCACAGCAGAAGCGUUCACGUCGCAGCCCCUGUCAGAUUCGGGUGAGUCUGCGAAUUCUGCUGUAUAUCUC [U51G A57G]	0.74
UAACAGGGGGCCACAGCAGAAGCGUUCACGUCGCAGCCCCUGUCAGAUUCGGGUGAAUCUGCUAAUUCUGCUGUAUAUCUC [U51G G63U]	1.1
UAACAGGGGGCCACAGCAGAAGCGUUCACGUCGCAGCCCCUGUCAGAUUCGGGUGAAUCUGCAAAUUCUGCUGUAUAUCUC [U51G G63A]	0.98
UAACAGGGGGCCACAGCAGAAGCGUUCACGUCGCAGCCCCUGUCAGAUUCGGGUGAAUCUGCGAGUUCUGCUGUAUAUCUC [U51G A65G]	0.72
UAACAGGGGGCCACAGCAGAAGCGUUCACGUCGCAGCCCCUGUCAGAUUCCGUUGAAUCUGCGAAUUCUGCUGUAUAUCUC [U51C G53U]	1.2
UAACAGGGGGCCACAGCAGAAGCGUUCACGUCGCAGCCCCUGUCAGAUUCCGAUGAAUCUGCGAAUUCUGCUGUAUAUCUC [U51C G53A]	1.18
UAACAGGGGGCCACAGCAGAAGCGUUCACGUCGCAGCCCCUGUCAGAUUCCGCUGAAUCUGCGAAUUCUGCUGUAUAUCUC [U51C G53C]	1.01
